± gives the standard deviation of the averaged measurements.
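Note: ATP exposure 15 min at 22 °C before imaging.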

For this data set, the system named is ATP. The data set is described as follows: switch fluorescence ratio, 500 uM ATP over buffer (Cy3 cluster intensity, sum of 5 cycles each) (fold (ratio)); higher = stronger signal-on switching upon ATP binding; sequences stand for … in TCGTCGGCAGCGTCAGATGTGTATAAGAGACAGTTTTTTTTTTTTTTTTTTTTTTTTT…TC. The following applies: aptamer strand: ATP DNA aptamer (quencher-CACCTGGGGGAGTATTGCGGAGGAAGG + anchor), 100 nM annealed; ATP concentration: 500 uM. The method in brief:
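Cy3-labelled switching-strand clusters on a modified Illumina MiSeq flow-cell were annealed to 100 nM quencher-labelled ATP aptamer, imaged in selection buffer, then imaged after 15 min with 500 uM ATP at 22 °C. Five buffer/ATP cycles ran, with NaOH stripping and re-annealing between them. The fluorescence ratio is summed target-cycle over summed buffer-cycle Cy3 intensity per cluster, averaged per switch-domain sequence. Clusters outside 100-1000 RFU were excluded.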
As for TTTTAGAATT, the switch fluorescence ratio was found to be 0.996 ± 0.013.

Turning to CAACGGACTA, the switch fluorescence ratio was found to be 1.246 ± 0.0095.

Turning to AAGGGGAGGC, the switch fluorescence ratio worked out at 0.971 ± 0.041.

On to CACGTGATTG, for which the switch fluorescence ratio stood at 1.02 ± 0.02.

Take CCGGGGGGGG: the switch fluorescence ratio was determined as 1.1 ± 0.17.

Turning to GATGGAACAC, the switch fluorescence ratio is 0.994 ± 0.017.

As to GAAAAGTATC, the switch fluorescence ratio is 1.001 ± 0.0022.

With TTCGTGAACG, the switch fluorescence ratio is 1 ± 0.071.

GTCGGGGCTG: the switch fluorescence ratio worked out at 0.972 ± 0.049.

Take AGGGGGTGCG: the switch fluorescence ratio is 0.988 ± 0.029.

As for AAAAACAGGG, the switch fluorescence ratio was 1.16 ± 0.097.

For TTCGGCTTTT, the switch fluorescence ratio is 0.983 ± 0.024.

Turning to AAAAAGATGA, the switch fluorescence ratio came to 0.9626 ± 0.0028.

Consider CGGTATGTGA, for which the switch fluorescence ratio amounted to 0.985 ± 0.041.

TTTGATCTTG: the switch fluorescence ratio stood at 1.01 ± 0.013.

For the sequence TGATTGGTTC, the switch fluorescence ratio came to 0.9788 ± 0.0029.

Turning to AGCCATAAGG, the switch fluorescence ratio worked out at 1.012 ± 0.0061.

Consider ACTTCGGGGC, for which the switch fluorescence ratio is 1.12 ± 0.027.

Consider GCCATTGTTG, for which the switch fluorescence ratio was 0.998 ± 0.018.

AGGTAAAGGC: the switch fluorescence ratio was found to be 1.02 ± 0.022.

With CGACGGCTGG, the switch fluorescence ratio was determined as 1.01 ± 0.07.

In the case of AACGGGGGGA, the switch fluorescence ratio was 0.979 ± 0.033.

In the case of TATGCCTCTT, the switch fluorescence ratio was found to be 1.01 ± 0.031.

As for TAAATTGCTT, the switch fluorescence ratio was 0.991 ± 0.012.

Turning to TGGGTTAATT, the switch fluorescence ratio is 0.989 ± 0.026.

With CATAGTATTA, the switch fluorescence ratio turned out to be 0.958 ± 0.04.

Consider CTTAGAGTTG, for which the switch fluorescence ratio amounted to 0.983 ± 0.016.

Regarding TGCTGGGGAA, the switch fluorescence ratio amounted to 1.01 ± 0.028.

Consider TAGGACTCAT, for which the switch fluorescence ratio turned out to be 1.009 ± 0.0082.

As to CGCCAGCAGA, the switch fluorescence ratio worked out at 1.33 ± 0.14.

In the case of ACTCTTTCGG, the switch fluorescence ratio is 1 ± 0.063.

For the sequence TATAAGATTA, the switch fluorescence ratio worked out at 1.015 ± 0.0027.

ATGATACAGT: the switch fluorescence ratio is 1.021 ± 0.0067.

Consider ATGAATCTAA, for which the switch fluorescence ratio stood at 1.01 ± 0.046.

On to TGGGAATGGT, for which the switch fluorescence ratio turned out to be 1.01 ± 0.048.

As to ACTTGTTTTT, the switch fluorescence ratio turned out to be 0.99 ± 0.033.

Consider TAAACGAGGG, for which the switch fluorescence ratio came out at 1.01 ± 0.014.

Regarding CGTGAATTTG, the switch fluorescence ratio came to 0.987 ± 0.026.

With CGCACCGGTG, the switch fluorescence ratio was found to be 1.02 ± 0.032.

For the sequence GGGTACGGGA, the switch fluorescence ratio is 1.06 ± 0.069.

Consider TACTTTTCAA, for which the switch fluorescence ratio came to 1.01 ± 0.011.

On to TAGTTTCCCA, for which the switch fluorescence ratio was determined as 0.971 ± 0.024.

As for CGGGGCTAGG, the switch fluorescence ratio worked out at 0.992 ± 0.017.

Consider AGGAGGATCG, for which the switch fluorescence ratio is 0.97 ± 0.079.

Regarding ATTGTATTTT, the switch fluorescence ratio was 0.979 ± 0.022.

With TGATAAAGTT, the switch fluorescence ratio amounted to 1.03 ± 0.034.

In the case of GGTGATGTTA, the switch fluorescence ratio came out at 0.9786 ± 0.0049.

Consider TTGTGTAGGG, for which the switch fluorescence ratio came out at 1.01 ± 0.017.

With ATTGCGGGCC, the switch fluorescence ratio is 1.02 ± 0.047.

Regarding AGATACAGTT, the switch fluorescence ratio is 1.02 ± 0.034.

Consider TTATGCTTTT, for which the switch fluorescence ratio is 1.0043 ± 0.00054.

In the case of AATTTAATTT, the switch fluorescence ratio is 1.015 ± 0.006.

On to TTAGCGTGCG, for which the switch fluorescence ratio stood at 0.953 ± 0.054.

Take GACCGGGCCC: the switch fluorescence ratio came to 1.01 ± 0.015.

GAATCAGGGA: the switch fluorescence ratio turned out to be 1.02 ± 0.015.

For ATTCGTTCGA, the switch fluorescence ratio amounted to 0.9955 ± 0.0033.

For the sequence TCTTTTATGG, the switch fluorescence ratio worked out at 1.04 ± 0.093.

As to GGGGGTTAAT, the switch fluorescence ratio is 1.013 ± 0.0037.

Take CTTATCGAAG: the switch fluorescence ratio came out at 0.968 ± 0.015.

In the case of TGGGGCGGCG, the switch fluorescence ratio was determined as 0.976 ± 0.03.

With AAATGAGCTT, the switch fluorescence ratio worked out at 0.986 ± 0.029.

In the case of CAAGTCTGG, the switch fluorescence ratio was determined as 0.985 ± 0.032.

Regarding ATAAGGTTGG, the switch fluorescence ratio was determined as 0.988 ± 0.029.

With CTAACGAGGG, the switch fluorescence ratio turned out to be 0.9731 ± 0.0043.

Regarding GTAGCGAGAG, the switch fluorescence ratio worked out at 2.11 ± 0.24.

Consider TTGCTCAACT, for which the switch fluorescence ratio was found to be 1 ± 0.026.

On to GTACTCGAGC, for which the switch fluorescence ratio came to 1 ± 0.018.

Consider GGCATATGTT, for which the switch fluorescence ratio was determined as 1 ± 0.021.

In the case of GGAGTAATTT, the switch fluorescence ratio was found to be 1.07 ± 0.016.

For ATATGGAGCA, the switch fluorescence ratio stood at 1.03 ± 0.046.

As to AGAGTGGTTA, the switch fluorescence ratio is 0.9864 ± 0.0033.

CCGTAATGTG: the switch fluorescence ratio turned out to be 1.5 ± 0.16.

Turning to ATTATTGATA, the switch fluorescence ratio was determined as 0.997 ± 0.036.

For TAGTGTCGGA, the switch fluorescence ratio was 0.9914 ± 0.0035.

As for AATGAAATAG, the switch fluorescence ratio amounted to 0.998 ± 0.0061.

For GCTTGTTTGT, the switch fluorescence ratio was found to be 1.02 ± 0.024.

Take GAAGGTGGGC: the switch fluorescence ratio amounted to 0.962 ± 0.028.

On to AGAACTCACC, for which the switch fluorescence ratio stood at 1.19 ± 0.049.

With CTAGTTTGAG, the switch fluorescence ratio turned out to be 1.01 ± 0.01.

Turning to ATCTTGTGGG, the switch fluorescence ratio was 0.9678 ± 0.0064.

Regarding CAGTTCCCGC, the switch fluorescence ratio stood at 1.16 ± 0.055.

For GCTAGTAAGA, the switch fluorescence ratio was 1.014 ± 0.008.

Consider ACGATTGGTA, for which the switch fluorescence ratio was found to be 1.03 ± 0.092.

Turning to GCGAACAACT, the switch fluorescence ratio was 1.014 ± 0.0087.

As to TTTTTTAAAT, the switch fluorescence ratio was found to be 0.987 ± 0.022.

Take GTTGTTTAGT: the switch fluorescence ratio amounted to 0.994 ± 0.026.

As to TATTGGGGGT, the switch fluorescence ratio came out at 1.01 ± 0.044.

In the case of GGTCGGCGGG, the switch fluorescence ratio was determined as 1.03 ± 0.1.

Take ATTATGGGGG: the switch fluorescence ratio amounted to 0.996 ± 0.036.

Take TTGGGGATAG: the switch fluorescence ratio was 1.11 ± 0.17.

As for ATTTCACTTT, the switch fluorescence ratio came out at 0.9915 ± 0.0085.

For the sequence TATTCATCGT, the switch fluorescence ratio was 0.9932 ± 0.0075.

In the case of TGAGACTGGT, the switch fluorescence ratio turned out to be 0.999 ± 0.023.

For CTGTGAGTTT, the switch fluorescence ratio turned out to be 1.007 ± 0.0094.

For GGGAAGGTAC, the switch fluorescence ratio is 1.047 ± 0.0014.

With TAGTCTGGT, the switch fluorescence ratio worked out at 0.999 ± 0.016.

For CTCGTGCCCG, the switch fluorescence ratio came out at 1.05 ± 0.075.

With GCCGAGTTTC, the switch fluorescence ratio is 1.02 ± 0.014.

Turning to TATGGTAGC, the switch fluorescence ratio was found to be 0.989 ± 0.048.

With GATCTCAGGG, the switch fluorescence ratio turned out to be 1 ± 0.034.

As to ATTTTTGACA, the switch fluorescence ratio stood at 1.001 ± 0.0037.

Take GGTGGACCGA: the switch fluorescence ratio was found to be 0.984 ± 0.083.

In the case of ATGGGAGAAT, the switch fluorescence ratio was 0.9801 ± 0.009.

Consider GGCTTTGTCC, for which the switch fluorescence ratio came to 0.991 ± 0.032.

As to CCAGTGTGTG, the switch fluorescence ratio worked out at 1.09 ± 0.062.

On to ACTTGTGCAG, for which the switch fluorescence ratio was 0.978 ± 0.026.

Take TTTTTGTGAC: the switch fluorescence ratio worked out at 0.999 ± 0.027.

TTTAGGCCAT: the switch fluorescence ratio was 1.017 ± 0.01.

As for TTTTGAAATT, the switch fluorescence ratio amounted to 1 ± 0.046.

With AAGGGGGCCC, the switch fluorescence ratio is 0.99 ± 0.021.

Consider TTAACACGGA, for which the switch fluorescence ratio amounted to 1.01 ± 0.019.

Turning to AATTTAGTAG, the switch fluorescence ratio came to 1 ± 0.013.

For TCTGGTAGTG, the switch fluorescence ratio was 1.03 ± 0.035.

On to CACGCGAGGA, for which the switch fluorescence ratio is 1.12 ± 0.12.

For the sequence ATCCCGTAGG, the switch fluorescence ratio was 0.9905 ± 0.0084.

Regarding GGGGAATTAT, the switch fluorescence ratio was determined as 1.03 ± 0.0058.

Take AAAGCATAGG: the switch fluorescence ratio worked out at 1.03 ± 0.015.

For TGTTTTTGTT, the switch fluorescence ratio amounted to 1.01 ± 0.058.

Take TGCGGGGTCA: the switch fluorescence ratio is 1.02 ± 0.034.

Take GGCTATCTTT: the switch fluorescence ratio is 1 ± 0.029.
